Test results: patent US20210363269A1 (ALX ONCOLOGY, published 2021)

T1: NOD mouse SIRP-α D1 domain (mouse (NOD strain))
T1 chain: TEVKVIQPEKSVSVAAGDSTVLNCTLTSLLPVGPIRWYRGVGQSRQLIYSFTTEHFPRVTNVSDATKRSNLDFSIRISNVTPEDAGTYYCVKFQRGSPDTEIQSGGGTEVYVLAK

T2: mouse 129 SIRP-α D1 domain (mouse (129 strain), UniProt P97797 32-150)
T2 construct: also called m129
T2 chain: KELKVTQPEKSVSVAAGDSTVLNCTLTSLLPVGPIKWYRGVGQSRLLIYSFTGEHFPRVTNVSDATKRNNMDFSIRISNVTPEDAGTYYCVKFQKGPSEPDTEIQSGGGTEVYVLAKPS

T3: BALB/c mouse SIRP-α D1 domain (mouse (BALB/c strain))
T3 chain: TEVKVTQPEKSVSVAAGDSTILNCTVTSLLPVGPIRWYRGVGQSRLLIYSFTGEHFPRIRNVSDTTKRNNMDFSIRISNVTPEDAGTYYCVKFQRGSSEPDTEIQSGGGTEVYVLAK

T4: C57BL/6 mouse SIRP-α D1 domain (mouse (C57BL/6 strain), UniProt P97797 32-148)
T4 sequence: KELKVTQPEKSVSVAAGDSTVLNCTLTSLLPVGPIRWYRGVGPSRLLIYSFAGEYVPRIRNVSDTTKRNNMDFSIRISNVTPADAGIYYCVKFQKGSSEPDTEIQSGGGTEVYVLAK

T5: mouse 129 SIRP-α (mouse (129 strain), UniProt P97797 32-150)
T5 construct: also called m129
T5 chain: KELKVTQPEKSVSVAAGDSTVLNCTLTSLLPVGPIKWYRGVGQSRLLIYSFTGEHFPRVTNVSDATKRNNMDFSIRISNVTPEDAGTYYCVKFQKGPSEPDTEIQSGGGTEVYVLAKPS


Key:
[1] = target: T1, NOD mouse SIRP-α D1 domain; assay: SPR, ProteOn, antibody on chip
Procedure: (§1) All experiments were performed at 25° C. using a SPR-based ProteOn XPR36 biosensor (BioRad, Inc, Hercules, Calif.) equipped with GLC or NLC sensor chips. […] Purification was carried out by standard Protein A affinity column chromatography and eluted antibodies were stored in PBS buffer.
(§2) For the method using GLC chip, the analytes were injected and flowed over anti-SIRPα antibodies immobilized (˜1000 RUs) on GLC chips using Proteon™ Amine Coupling Kit. For the immobilization step, GLC chip was activated with EDAC/Sulpho-NHS 1:1 (Biorad) diluted 1/100 for 300 s at 25 μL/min. Anti-SIRPα antibodies were diluted to 80 nM concentration in 10 mM sodium acetate buffer pH 4.5 and immobilized to the chip at 30 μL/min for 50 s. Chip was inactivated with ethanolamine for 300 s at 25 μL/min. The analytes (e.g., SIRP-α from different species, SIRP-β, SIRP-γ) were injected in a “one-shot” kinetic mode at nominal concentrations of 100, 33, 11, 3.7, 1.2 and 0 nM. Association times were monitored for 90 s at 100 μL/min, and dissociation times were monitored for 1200 s. The surfaces were regenerated with a 2:1 v/v blend of Pierce IgG elution buffer/4M NaCl.
(§3) Next, the binding kinetics of various antibody clones to selected mouse SIRP-α proteins were determined as described above. Mouse proteins that were tested include BALBc (SEQ ID NO:10), BL6 (SEQ ID NO:9), NOD (SEQ ID NO:8), and m129 (SEQ ID NO:7) SIRP-α proteins. Antibody clones labeled as “c” were tested as full-length mouse IgG2a antibodies; antibody clones labeled as “a” were tested as full-length human IgG1 antibodies with L234A, L235A, G237A, and N297A mutations.

[2] = target: T2, mouse 129 SIRP-α D1 domain; assay: SPR, ProteOn, antibody on chip
Procedure: as §1, §2, §3

[3] = target: T3, BALB/c mouse SIRP-α D1 domain; assay: SPR, ProteOn, antibody on chip
Procedure: as §1
(§4) The running buffer was PBS pH 7.4 with 0.01% Tween-20 (PBST+). All analytes were used at their nominal concentrations as determined by A280 Absorbance and using their molar calculated extinction coefficient.
as §2

[4] = target: T4, C57BL/6 mouse SIRP-α D1 domain; assay: SPR, ProteOn, antibody on chip
Procedure: as §1, §4, §2

[5] = target: T6, human SIRP-α v2 (human); assay: SPR
T6 construct: also called Human v2; Human V2
T6 sequence (chain, as listed by the source limits assumed): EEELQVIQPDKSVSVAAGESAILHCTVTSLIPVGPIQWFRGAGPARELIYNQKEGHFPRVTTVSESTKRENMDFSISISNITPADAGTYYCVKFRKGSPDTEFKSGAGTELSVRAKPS
How it was run: (§5)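 On a ProteOn XPR36 biosensor, purified antibodies were either amine-coupled to a GLC chip or captured on an NLC chip using biotinylated Protein A. The running buffer was PBS pH 7.4 with 0.01% Tween-20, at 25° C. SIRP analytes, at nominal concentrations fixed by A280 absorbance, were injected in one-shot kinetic mode. The rate constants are apparent values from a global simple Langmuir fit of double-referenced data, and KD equals kd/ka.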

[6] = target: T7, human SIRP-α v1 (human, UniProt P78324 31-149); assay: SPR
T7 construct: also called Human v1; Human V1
T7 sequence (P78324 31-149 limits assumed): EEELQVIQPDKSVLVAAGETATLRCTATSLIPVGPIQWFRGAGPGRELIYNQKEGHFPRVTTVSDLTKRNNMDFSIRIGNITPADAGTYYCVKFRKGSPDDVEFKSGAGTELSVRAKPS
How it was run: as §5

[7] = target: T5, mouse 129 SIRP-α; assay: SPR Koff +/-
How it was run: as §5

| Binder | Kd [1] [nM] | koff [1] [s⁻¹] | kon [1] [M⁻¹ s⁻¹] | Kd [2] [nM] | koff [2] [s⁻¹] | kon [2] [M⁻¹ s⁻¹] | Kd [3] [nM] | koff [3] [s⁻¹] | kon [3] [M⁻¹ s⁻¹] | Kd [4] [nM] | koff [4] [s⁻¹] | kon [4] [M⁻¹ s⁻¹] | Kd [5] [nM] | Kd [6] [nM] | binding result [7] |
| --- | --- | --- | --- | --- | --- | --- | --- | --- | --- | --- | --- | --- | --- | --- | --- |
| AB3c (antibody, mouse IgG2a, V domains shown, Full-length mouse IgG2a) VH: AVTLDESGGGLQTPGGALSLVCKASGFIFSDYGMNWVRQAPGKGLEFVAQITSGSRTYYGAAVKGRATISRDNRQSTVKLQLNNLRAEDTGIYFCARDFGSGVGSIDAWGNGTEVIVSS VL: ALTQPASVSANLGGTVKITCSGSRGRYGWYQQRSPGSAPVTVIYRDNQRPSNIPSRFSSSTSGSTSTLTITGVQADDESVYFCGSYDGSIDIFGAGTTLTVL | 1.43 | 0.00143 | 999000 | 22 | 0.0118 | 534000 | 5.31 | 0.00412 | 776000 | 15 | 0.00619 | 412000 | – | – | – |
| AB21c (antibody, mouse IgG2a, V domains shown, Full-length mouse IgG2a) VH: DVQLVESGGGVVRPGESLRLSCAASGFTFSSNAMSWVRQAPGKGLEWLAGISAGGSDTYYPASVKGRFTISRDNSKNTLYLQMNTLTAEDTAVYYCARETWNHLFDYWGLGTLVTVSS VL: ALTQPASVSANPGETVKIACSGGDYYSYYYGWYQQKAPGSALVTVIYSDDKRPSDIPSRFSGSASGSTATLTITGVRAEDEAVYYCGGYDYSTYANAFGAGTTLTVL | 0.64 | 0.000479 | 749000 | 0.0588 | 3.31e-05 | 563000 | 1.34 | 0.000618 | 462000 | 0.876 | 0.000241 | 276000 | – | – | – |
| AB25c (antibody, mouse IgG2a, V domains shown, Full-length mouse IgG2a) VH: DVQLVESGGGVVRPGESLRLSCEASGFTFSSNAMSWVRQAPGKGLEWVAGISSGSDTYYGDSVKGRLTISRDNSKNILYLQMNSLTAEDTAVYYCARETWNHLFDYWGLGTLVTVSS VL: ALTQPASVSANPGETVEITCSGGSYSSYYYAWYQQKSPGSAPVTLIYSDDKRPSNIPSRFSGSASGSTATLTITGVRAEDEAVYFCGGYDQSSYTNPFGAGTTLTVL | 3.9 | 0.00143 | 366000 | 0.0587 | 2.07e-05 | 352000 | 9.64 | 0.00292 | 303000 | 2.81 | 0.000399 | 142000 | – | – | – |
| AB27c (antibody, mouse IgG2a, V domains shown, Full-length mouse IgG2a) VH: DVQLVESGGGVVRPGESLRLSCAVSGFRFSSYAMSWVRQAPGKGLEWVSGISSGGDTYYVDSVKGRFTISRDNSKNTLYLQVNSLTAEDTAIYYCARETWNHLFDYWGLGTLVTVSS VL: ALTQPASVSADLGETVKITCSGGDSSSHYYGWYQQKSPGSAPVTVIYSDDERPSDIPSRFSGSASGSTATLTITGVRVEDEAIYYCGAYDGSTYANTFGAGTTLTVL | 3.42 | 0.00101 | 296000 | 0.487 | 0.000101 | 207000 | 15 | 0.00226 | 150000 | 9.49 | 0.0014 | 147000 | – | – | – |
| AB66c (antibody, mouse IgG2a, V domains shown, Full-length mouse IgG2a) VH: DVQLVESGGGVVRPGESLRLSCAASGFTFSSYAMSWVRQAPGKGLEWLAGISAGGSDTYYIDSVKGRFTISRDNPKNSLYLQMSSLTAEDTAVYYCARETWNHLFDYWGLGTLVTVSS VL: ALTQPASVSANPGETVKITCSGGDYYSTYYAWYQQKSPGSAPVTVIHSDDKRPSDIPSRFSGSASGSAATLIITGVRVEDEAVYYCGGYDGRTYINTFGAGTTLTVL | 0.564 | 0.000232 | 412000 | 0.0955 | 1.98e-05 | 207000 | 3.41 | 0.000762 | 224000 | 5.8 | 0.000619 | 107000 | – | – | – |
| antibody 121 (antibody, V domains shown, also called S121) VH: VQLVESGGGVVQPGGSLRLSCAASGFSFSNFAMTWVRQAPGEGLEWVSTIGSGDTYYADSVKGRFTISRDNSKNTLYLQMNSLRAEDTAVYYCAKDSTVSWSGDFFDYWGLGTLVTVSS VL: EIVLTQSPATLSVSPGERATFSCRASQNVKNDLAWYQQRPGQAPRLLIYAARIRETGIPERFSGSGSGTEFTLTITSLQSEDFAVYYCQQYYDWPPFTFGGGTKVEIK | – | – | – | – | – | – | – | – | – | – | – | – | 0.0501 | 0.157 | no binding |
| antibody 120 (antibody, V domains shown, also called S120) VH: VQLVESGGGVVQPGGSLRLSCAASGFSFSNFAMTWVRQAPGEGLEWVSTIGSGDTYYADSVKGRFTISRDNSKNTLYLQMNSLRAEDTAVYYCAKDSTVSWSGDFFDYWGLGTRVTVSS VL: EIVLTQSPATLSVSPGERATFSCRASQNVKNDLAWYQQRPGQAPRLLIYAARIRETGIPERFSGSGSGTEFTLTITSLQSEDFAVYYCQQYYDWPPFTFGGGTKVEIK | – | – | – | – | – | – | – | – | – | – | – | – | 0.0856 | 0.214 | no binding |
| antibody 132 (antibody, V domains shown, also called AB132; S132) VH: DVQLVESGGGVVRPGESLRLSCAASGFSFRSYAMNWVRQAPGEGLEWVSRINSGGGGTDYADSVKGRFTISRDNSKNTLYLQMNSLRAEDTAVYYCAKQYDWNSFFDYWGLGALVTVSS VL: ETVLTQSPATLSVSPGERATLSCRASQTVGSKLAWHQQKPGQAPRLLIYDASNRATGIPDRFSGSGSGTDFTLTISSPQTEDSAVYYCQQYYYWPPYRFGGGTKVEIK | – | – | – | – | – | – | – | – | – | – | – | – | 1.86 | 0.426 | no binding |
| antibody 163 (antibody, V domains shown, also called S163) VH: DVQLVESGGGLVRPGESLRLSCAASGFTFTNYAVTWVRQAPGEGLEWVSLISVTGTTYYADSVKGRFTISRDNSKSTLYLQMNGLRAEDTAVYYCAKVTWKNVFDYWGLGTLVTVSS VL: EIVLTQSPGTLSVSPGERATFSCRASQTVGSKLAWYQQKPGQAPRLLIYDANTRATGIPARFSGSGSGTEFTLTISSLQSEDFAVYYCQQHTDWPPYTFGGGTKVEIK | – | – | – | – | – | – | – | – | – | – | – | – | – | – | no binding |
| antibody 162 (antibody, V domains shown, also called S162) VH: DVQLVESGGGLVRPGESLRLSCAASGFTFTNYAVTWVRQAPGEGLEWVSLISVTGTTYYADSVKGRFTISRDNSKSTLYLQMNSLRAEDTAVYYCAKVTWKNVFDYWGLGTLVTVSS VL: EIVLTQSPGTLSVSPGERATFSCRASQTVGSKLAWYQQKPGQAPRLLIYDANTRATGIPARFSGSGSGTEFTLTISSLQSEDFAVYYCQQHTDWPPYTFGGGTKVEIK | – | – | – | – | – | – | – | – | – | – | – | – | – | – | no binding |
| antibody 164 (antibody, V domains shown, also called S164) VH: DVQLVESGGGLVRPGESLRLSCAASGFTFTNYAVTWVRQAPGEGLEWVSLISVTGTTYYADSVKGRFTISRDNSKSTLYLQMNGLRAEDTAVYYCAKVTWKNVFDYWGLGTLVTVSS VL: EIVLTQSPGTLSVSPGERATFSCRASQTVGSKLAWYQQKPGQAPRLLIYDANTRATGIPARFSGSRSGTEFTLTISSLQSEDFAVYYCQQHTDWPPYTFGGGTKVEIK | – | – | – | – | – | – | – | – | – | – | – | – | – | – | no binding |
